Bridge positions count the residues as written; N and C are the ends. Square brackets hold non-standard residues; d marks the D form. Primed or numbered codes have the meaning given here. Side chains are listed from the residue outwards. Ends that are not written are not given here. * marks the point of attachment. Bpa = N[C@@H](Cc1ccc(C(=O)c2ccccc2)cc1)C(=O)O; Gd^D = GdDOTAGA (gadolinium DOTAGA chelate); Tyr(3-Cl) = N[C@@H](Cc1ccc(O)c(Cl)c1)C(=O)O; Bip = N[C@@H](Cc1ccc(-c2ccccc2)cc1)C(=O)O; Gd^T(3) = GdDTPA attached via thiourea; 1Nal = N[C@@H](Cc1cccc2ccccc12)C(=O)O; 2Nal = N[C@@H](Cc1ccc2ccccc2c1)C(=O)O; Bta = N[C@@H](Cc1csc2ccccc12)C(=O)O; hPhe = N[C@@H](CCc1ccccc1)C(=O)O; 2Pal = N[C@@H](Cc1ccccn1)C(=O)O; Cha = N[C@@H](CC1CCCCC1)C(=O)O; K(Gd^T)Gd^T = not defined here; Pen = CC(C)(S)[C@H](N)C(=O)O; Gd^G = not defined here; Gd^T = not defined here; Gd^T″ = GdDTPA-thiourea; Cbz = O=C(OCc1ccccc1)*; Dap = NC[C@H](N)C(=O)O; AEEA = NCCOCCOCC(=O)O
target: T1, human collagen type I, acid soluble, extracted from placenta (Sigma C7774) (human, UniProt P02452 162-1218; P08123 80-1119); experiment: dried collagen assay
T1 construct: tissue extract, gelled and dried in wells; also called dried human collagen; h-Collagen
T1 sequence (P02452 162-1218 limits assumed, chain 1 of 2): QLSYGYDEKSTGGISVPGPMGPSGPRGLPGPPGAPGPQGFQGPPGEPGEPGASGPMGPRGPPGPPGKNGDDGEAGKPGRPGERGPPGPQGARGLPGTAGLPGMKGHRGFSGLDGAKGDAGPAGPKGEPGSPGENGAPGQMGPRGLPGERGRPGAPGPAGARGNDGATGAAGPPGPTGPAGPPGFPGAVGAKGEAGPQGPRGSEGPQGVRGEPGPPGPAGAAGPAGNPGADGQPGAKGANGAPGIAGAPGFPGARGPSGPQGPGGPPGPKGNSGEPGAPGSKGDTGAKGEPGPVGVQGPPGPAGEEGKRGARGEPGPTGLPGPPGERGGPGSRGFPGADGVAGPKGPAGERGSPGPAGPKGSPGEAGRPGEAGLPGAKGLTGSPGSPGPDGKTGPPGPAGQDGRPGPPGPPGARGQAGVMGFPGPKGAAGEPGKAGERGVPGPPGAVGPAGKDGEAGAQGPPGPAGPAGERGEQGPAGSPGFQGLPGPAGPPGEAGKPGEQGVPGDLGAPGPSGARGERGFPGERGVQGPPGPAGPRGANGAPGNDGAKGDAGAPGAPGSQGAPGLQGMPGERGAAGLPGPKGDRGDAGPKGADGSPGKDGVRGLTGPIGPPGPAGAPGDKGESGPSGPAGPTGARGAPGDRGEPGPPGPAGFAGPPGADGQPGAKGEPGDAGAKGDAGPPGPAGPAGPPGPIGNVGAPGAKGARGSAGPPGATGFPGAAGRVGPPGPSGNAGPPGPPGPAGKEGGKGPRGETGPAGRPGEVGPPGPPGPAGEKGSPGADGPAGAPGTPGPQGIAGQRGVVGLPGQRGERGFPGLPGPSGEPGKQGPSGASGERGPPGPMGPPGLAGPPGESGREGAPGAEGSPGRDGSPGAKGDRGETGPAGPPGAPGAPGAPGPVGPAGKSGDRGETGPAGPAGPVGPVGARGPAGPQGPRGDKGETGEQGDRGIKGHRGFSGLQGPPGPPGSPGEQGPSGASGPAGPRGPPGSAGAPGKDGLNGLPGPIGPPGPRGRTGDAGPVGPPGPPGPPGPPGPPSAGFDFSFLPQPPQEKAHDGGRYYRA
T1 sequence (P08123 80-1119 limits assumed, chain 2 of 2): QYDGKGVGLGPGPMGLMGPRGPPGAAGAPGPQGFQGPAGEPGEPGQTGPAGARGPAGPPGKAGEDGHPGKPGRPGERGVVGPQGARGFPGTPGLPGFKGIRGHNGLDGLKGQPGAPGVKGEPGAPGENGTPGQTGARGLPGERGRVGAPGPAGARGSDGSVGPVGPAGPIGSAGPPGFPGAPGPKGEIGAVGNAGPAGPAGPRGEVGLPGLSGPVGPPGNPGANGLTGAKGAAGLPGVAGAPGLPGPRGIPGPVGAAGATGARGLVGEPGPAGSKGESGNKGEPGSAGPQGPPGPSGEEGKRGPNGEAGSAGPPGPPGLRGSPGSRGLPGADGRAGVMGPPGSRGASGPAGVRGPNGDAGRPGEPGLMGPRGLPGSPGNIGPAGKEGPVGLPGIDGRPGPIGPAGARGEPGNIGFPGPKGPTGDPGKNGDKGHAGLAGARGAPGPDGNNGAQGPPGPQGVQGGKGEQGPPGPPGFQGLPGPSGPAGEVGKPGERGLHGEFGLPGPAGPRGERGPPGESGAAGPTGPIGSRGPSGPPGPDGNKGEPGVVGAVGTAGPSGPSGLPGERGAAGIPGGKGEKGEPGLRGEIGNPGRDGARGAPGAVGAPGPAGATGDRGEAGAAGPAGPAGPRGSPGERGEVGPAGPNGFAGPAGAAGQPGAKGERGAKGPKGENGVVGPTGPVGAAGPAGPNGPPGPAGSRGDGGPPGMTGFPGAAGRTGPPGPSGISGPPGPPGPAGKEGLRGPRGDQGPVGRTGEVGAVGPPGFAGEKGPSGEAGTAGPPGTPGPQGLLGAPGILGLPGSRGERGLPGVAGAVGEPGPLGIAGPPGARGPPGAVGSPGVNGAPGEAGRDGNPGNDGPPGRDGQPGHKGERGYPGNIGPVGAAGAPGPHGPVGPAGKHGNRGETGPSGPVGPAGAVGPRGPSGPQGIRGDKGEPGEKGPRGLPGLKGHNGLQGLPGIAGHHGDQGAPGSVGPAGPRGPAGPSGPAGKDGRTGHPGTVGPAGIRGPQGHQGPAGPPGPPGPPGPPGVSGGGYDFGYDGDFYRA

Binder	% bound [%]
{Gd^T″}-GQWHCTTRFPHH[Bip]CLYG (disulfide 5-14) [Compound ID 873]	38
{Gd^T″}-GQWHCTTYFPHH[dY]CLYG (disulfide 5-14 (inferred); not fully specified (C-terminus)) [Compound ID 914]	19
{Gd^T″}-GQ[2Nal]HCTTRFPHHYCLYG (disulfide 5-14) [Compound ID 872]	41
{Gd^T″}-GK([Gly-Gd^T″])QWHCTTYFPHHYCLYG (disulfide 6-15 (inferred)) [Compound ID 875]	64
{Gd^T″}-GQWHCTT[Tyr(3-Cl)]FPHH[dY]CLYG (disulfide 5-14 (inferred); not fully specified (C-terminus)) [Compound ID 916]	23
{Gd^T(3)}-GK([Gly-Gd^T(3)])WHCYTYFPHH[1Nal]CLYG (disulfide 5-14; not fully specified (C-terminus)) [Compound ID 992]	75
{Gd^T″}-AWHCTTLFPHH[dY]CLYG (disulfide 4-13 (inferred); not fully specified (C-terminus)) [Compound ID 909]	14
GQWHCTTYFPHHYCLYG (disulfide 5-14 (inferred); not fully specified (N-terminus)) [Compound ID 919]	93
{Gd^T″}-GQWHCTTR[Bip]PHHYCLYG (disulfide 5-14) [Compound ID 881]	19
{Gd^T″}-AWHCTTRFPAHYCLYG (disulfide 4-13 (inferred)) [Compound ID 937]	11
{Gd^T}-GQWHCTTR[1Nal]PHHYCLYG (disulfide 5-14; not fully specified (C-terminus); reading uncertain) [Compound ID 860]	60
{Gd^T″}-GQWHCTTD[Bpa]PHHYCLYG (disulfide 5-14) [Compound ID 882]	0
{Gd^T(3)}-GQWHCTTD[2Nal]PHHYCLYG (disulfide 5-14; not fully specified (C-terminus)) [Compound ID 894]	20
{Gd^T″}-GQWHCTTDFPH[2Pal]YCLYG (disulfide 5-14) [Compound ID 888]	38
{Gd^T(3)}-GQWHCTTDFPHHYCL[2Nal]G (disulfide 5-14) [Compound ID 891]	79
{Gd^T″}-GK([Gly-Gd^T″])WHCYTYFPHHYCLYGK(Gd^T″) (disulfide 5-14 (inferred)) [Compound ID 996]	76
{Gd^T″}-GK([Gly-Gd^T″])WHCYTYFPHHYCLYFK(Gd^T″) (disulfide 5-14 (inferred); not fully specified (C-terminus)) [Compound ID 985]	56
{Gd^T″}-GK([Gly-Gd^T″])WHCYTYFPHHYCLYYK(Gd^T″) (disulfide 5-14 (inferred); not fully specified (C-terminus)) [Compound ID 987]	62

Binder	% bound [%]
{Gd^T″}-GK([Gly-Gd^T″])WHCYTYFPHHYCVYYK(Gd^T″) (disulfide 5-14 (inferred); not fully specified (C-terminus)) [Compound ID 975]	70
{Gd^T″}-GK([Gly-Gd^T″])WHCTTYFPHHYCLYYK(Gd^T″) (disulfide 5-14 (inferred); not fully specified (C-terminus)) [Compound ID 976]	62
{Gd^T″}-GK([Gly-Gd^T″])WHCYTYFPHHYCVYGK(Gd^T″) (disulfide 5-14 (inferred); not fully specified (C-terminus)) [Compound ID 974]	71
{Gd^T(3)}-GQWHCTTRFPHHYC[hPhe]YG (disulfide 5-14) [Compound ID 932]	59
GQWHCTTYFPHHYCLYG-{AEEA-Gd^G} (disulfide 5-14 (inferred); reading uncertain, no N-terminal chelate printed) [Compound ID 874]	45
{Gd^T}-GQWHCTTYFPHHYCLYG (disulfide 5-14 (inferred); not fully specified (C-terminus); reading uncertain) [Compound ID 861]	73
{Gd^T″}-GQWHCTTDFPH[Dap](Gd^T″)YCLYG (disulfide 5-14) [Compound ID 887]	0
{Gd^T″}-GQWHCTTRFPHHYCLYGK(K(Gd^T)Gd^T) (disulfide 5-14 (inferred); reading uncertain) [Compound ID 955]	51
{Gd^T(3)}-GQWH[Pen]TTRFPHHYCLYG (disulfide 5-14; not fully specified (C-terminus)) [Compound ID 896]	50
{Gd^D}-GK([Gly-Gd^D])QWHCTTYFPHHYCLYG (disulfide 6-15 (inferred)) [Compound ID 961]	54
{Gd^T″}-GQWHCTTRFPHH[1Nal]CLYG (disulfide 5-14) [Compound ID 867]	55
{Gd^T(3)}-GQWHCTTLFPHH[1Nal]CLYG (disulfide 5-14; not fully specified (C-terminus)) [Compound ID 913]	78
{Gd^T″}-GQWHCTTDFPHHYCL[Bpa]G (disulfide 5-14) [Compound ID 889]	38
{Gd^T(3)}-GQWHCTT[Cha]FPHH[dY]CLYG (disulfide 5-14; not fully specified (C-terminus)) [Compound ID 918]	19
{Gd^T″}-GQ[Bta]HCTTRFPHHYCLYG (disulfide 5-14) [Compound ID 868]	36
Cbz-GQWHCTTRFPHHYCLYGK (disulfide 5-14 (inferred); not fully specified (residue 18)) [Compound ID 925]	64
{Gd^T″}-K(Gd^T″)K(K(Gd^T)Gd^T)GQWHCTTYFPHHYCLYG (disulfide 7-16 (inferred); reading uncertain) [Compound ID 960]	30
{Gd^T″}-PPWHCTTLFPHH[dY]CLYG (disulfide 5-14 (inferred); not fully specified (C-terminus)) [Compound ID 912]	20

target: T2, rat collagen, acid soluble, type I, rat tail (Upstate 08-115) (rat, UniProt P02454 152-1207; P02466 86-1125); experiment: dried collagen assay
T2 construct: tissue extract, gelled and dried in wells; also called dried rat collagen
T2 sequence (P02454 152-1207, chain 1 of 2): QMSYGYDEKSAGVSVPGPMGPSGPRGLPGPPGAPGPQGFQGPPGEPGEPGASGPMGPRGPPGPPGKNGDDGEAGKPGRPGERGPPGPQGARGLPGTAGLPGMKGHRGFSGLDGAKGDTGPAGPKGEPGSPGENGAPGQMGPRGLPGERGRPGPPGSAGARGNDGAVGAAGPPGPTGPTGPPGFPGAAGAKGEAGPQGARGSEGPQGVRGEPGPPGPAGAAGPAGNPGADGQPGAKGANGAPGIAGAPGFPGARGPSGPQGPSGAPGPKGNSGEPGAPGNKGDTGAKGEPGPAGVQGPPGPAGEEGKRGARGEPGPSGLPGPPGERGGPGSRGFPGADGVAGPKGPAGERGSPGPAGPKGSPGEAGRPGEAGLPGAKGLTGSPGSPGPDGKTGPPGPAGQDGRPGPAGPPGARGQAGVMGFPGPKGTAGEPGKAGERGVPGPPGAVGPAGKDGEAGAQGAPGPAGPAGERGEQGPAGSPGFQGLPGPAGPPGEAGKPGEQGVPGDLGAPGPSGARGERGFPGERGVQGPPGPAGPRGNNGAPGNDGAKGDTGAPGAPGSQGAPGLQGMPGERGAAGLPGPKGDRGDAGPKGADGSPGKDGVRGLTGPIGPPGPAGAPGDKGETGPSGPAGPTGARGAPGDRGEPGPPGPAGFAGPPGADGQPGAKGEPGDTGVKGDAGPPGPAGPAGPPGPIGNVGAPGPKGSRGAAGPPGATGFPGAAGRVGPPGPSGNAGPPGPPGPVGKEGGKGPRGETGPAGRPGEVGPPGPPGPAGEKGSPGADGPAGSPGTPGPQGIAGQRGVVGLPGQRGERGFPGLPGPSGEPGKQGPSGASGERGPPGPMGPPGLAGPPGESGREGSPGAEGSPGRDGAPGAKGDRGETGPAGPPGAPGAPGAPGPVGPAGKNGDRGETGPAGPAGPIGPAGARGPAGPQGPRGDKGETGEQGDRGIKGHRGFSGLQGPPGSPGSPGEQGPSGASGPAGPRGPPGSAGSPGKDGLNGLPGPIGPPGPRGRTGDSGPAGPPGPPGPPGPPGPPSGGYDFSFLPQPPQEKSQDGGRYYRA
T2 sequence (P02466 86-1125, chain 2 of 2): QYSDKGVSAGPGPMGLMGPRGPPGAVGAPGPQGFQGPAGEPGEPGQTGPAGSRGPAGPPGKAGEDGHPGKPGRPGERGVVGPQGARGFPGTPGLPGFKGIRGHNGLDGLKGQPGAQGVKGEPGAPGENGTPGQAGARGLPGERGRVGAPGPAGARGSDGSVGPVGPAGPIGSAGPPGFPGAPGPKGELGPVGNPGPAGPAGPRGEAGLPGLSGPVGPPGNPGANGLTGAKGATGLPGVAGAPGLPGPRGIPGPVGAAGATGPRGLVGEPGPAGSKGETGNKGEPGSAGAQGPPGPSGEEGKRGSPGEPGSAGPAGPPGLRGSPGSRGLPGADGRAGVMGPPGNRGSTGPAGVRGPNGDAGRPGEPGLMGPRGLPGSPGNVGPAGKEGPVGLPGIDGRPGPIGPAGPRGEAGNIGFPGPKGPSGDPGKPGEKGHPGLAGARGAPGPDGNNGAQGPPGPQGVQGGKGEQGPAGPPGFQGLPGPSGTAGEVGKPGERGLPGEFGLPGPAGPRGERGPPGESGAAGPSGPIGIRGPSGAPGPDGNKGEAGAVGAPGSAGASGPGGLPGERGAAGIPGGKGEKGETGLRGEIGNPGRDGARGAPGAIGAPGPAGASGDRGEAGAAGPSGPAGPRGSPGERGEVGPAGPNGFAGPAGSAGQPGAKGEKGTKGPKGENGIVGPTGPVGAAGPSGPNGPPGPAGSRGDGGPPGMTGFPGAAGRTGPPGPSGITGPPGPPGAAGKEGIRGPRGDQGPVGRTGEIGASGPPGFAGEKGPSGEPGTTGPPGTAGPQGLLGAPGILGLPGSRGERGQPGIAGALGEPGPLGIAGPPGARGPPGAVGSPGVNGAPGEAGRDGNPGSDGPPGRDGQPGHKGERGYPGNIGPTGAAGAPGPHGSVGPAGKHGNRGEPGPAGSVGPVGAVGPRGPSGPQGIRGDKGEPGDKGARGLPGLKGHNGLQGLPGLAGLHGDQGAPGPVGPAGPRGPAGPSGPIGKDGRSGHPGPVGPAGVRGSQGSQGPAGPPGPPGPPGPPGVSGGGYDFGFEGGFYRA

Binder	% bound [%]
{Gd^T″}-GQWHCTTRFPHH[Bip]CLYG (disulfide 5-14) [Compound ID 873]	33
{Gd^T″}-GQWHCTTYFPHH[dY]CLYG (disulfide 5-14 (inferred); not fully specified (C-terminus)) [Compound ID 914]	0
{Gd^T″}-GQ[2Nal]HCTTRFPHHYCLYG (disulfide 5-14) [Compound ID 872]	35
{Gd^T″}-GK([Gly-Gd^T″])QWHCTTYFPHHYCLYG (disulfide 6-15 (inferred)) [Compound ID 875]	60
{Gd^T″}-GQWHCTT[Tyr(3-Cl)]FPHH[dY]CLYG (disulfide 5-14 (inferred); not fully specified (C-terminus)) [Compound ID 916]	0
{Gd^T(3)}-GK([Gly-Gd^T(3)])WHCYTYFPHH[1Nal]CLYG (disulfide 5-14; not fully specified (C-terminus)) [Compound ID 992]	64
{Gd^T″}-AWHCTTLFPHH[dY]CLYG (disulfide 4-13 (inferred); not fully specified (C-terminus)) [Compound ID 909]	0
GQWHCTTYFPHHYCLYG (disulfide 5-14 (inferred); not fully specified (N-terminus)) [Compound ID 919]	93
{Gd^T″}-GQWHCTTR[Bip]PHHYCLYG (disulfide 5-14) [Compound ID 881]	28
{Gd^T″}-AWHCTTRFPAHYCLYG (disulfide 4-13 (inferred)) [Compound ID 937]	14
{Gd^T}-GQWHCTTR[1Nal]PHHYCLYG (disulfide 5-14; not fully specified (C-terminus); reading uncertain) [Compound ID 860]	45
{Gd^T″}-GQWHCTTD[Bpa]PHHYCLYG (disulfide 5-14) [Compound ID 882]	13
{Gd^T(3)}-GQWHCTTD[2Nal]PHHYCLYG (disulfide 5-14; not fully specified (C-terminus)) [Compound ID 894]	15
{Gd^T″}-GQWHCTTDFPH[2Pal]YCLYG (disulfide 5-14) [Compound ID 888]	30
{Gd^T(3)}-GQWHCTTDFPHHYCL[2Nal]G (disulfide 5-14) [Compound ID 891]	70
{Gd^T″}-GK([Gly-Gd^T″])WHCYTYFPHHYCLYGK(Gd^T″) (disulfide 5-14 (inferred)) [Compound ID 996]	67
{Gd^T″}-GK([Gly-Gd^T″])WHCYTYFPHHYCLYFK(Gd^T″) (disulfide 5-14 (inferred); not fully specified (C-terminus)) [Compound ID 985]	68
{Gd^T″}-GK([Gly-Gd^T″])WHCYTYFPHHYCLYYK(Gd^T″) (disulfide 5-14 (inferred); not fully specified (C-terminus)) [Compound ID 987]	68

Binder	% bound [%]
{Gd^T″}-GK([Gly-Gd^T″])WHCYTYFPHHYCVYYK(Gd^T″) (disulfide 5-14 (inferred); not fully specified (C-terminus)) [Compound ID 975]	64
{Gd^T″}-GK([Gly-Gd^T″])WHCTTYFPHHYCLYYK(Gd^T″) (disulfide 5-14 (inferred); not fully specified (C-terminus)) [Compound ID 976]	57
{Gd^T″}-GK([Gly-Gd^T″])WHCYTYFPHHYCVYGK(Gd^T″) (disulfide 5-14 (inferred); not fully specified (C-terminus)) [Compound ID 974]	69
{Gd^T(3)}-GQWHCTTRFPHHYC[hPhe]YG (disulfide 5-14) [Compound ID 932]	79
GQWHCTTYFPHHYCLYG-{AEEA-Gd^G} (disulfide 5-14 (inferred); reading uncertain, no N-terminal chelate printed) [Compound ID 874]	28
{Gd^T}-GQWHCTTYFPHHYCLYG (disulfide 5-14 (inferred); not fully specified (C-terminus); reading uncertain) [Compound ID 861]	79
{Gd^T″}-GQWHCTTDFPH[Dap](Gd^T″)YCLYG (disulfide 5-14) [Compound ID 887]	16
{Gd^T″}-GQWHCTTRFPHHYCLYGK(K(Gd^T)Gd^T) (disulfide 5-14 (inferred); reading uncertain) [Compound ID 955]	36
{Gd^T(3)}-GQWH[Pen]TTRFPHHYCLYG (disulfide 5-14; not fully specified (C-terminus)) [Compound ID 896]	41
{Gd^D}-GK([Gly-Gd^D])QWHCTTYFPHHYCLYG (disulfide 6-15 (inferred)) [Compound ID 961]	55
{Gd^T″}-GQWHCTTRFPHH[1Nal]CLYG (disulfide 5-14) [Compound ID 867]	48
{Gd^T(3)}-GQWHCTTLFPHH[1Nal]CLYG (disulfide 5-14; not fully specified (C-terminus)) [Compound ID 913]	64
{Gd^T″}-GQWHCTTDFPHHYCL[Bpa]G (disulfide 5-14) [Compound ID 889]	19
{Gd^T(3)}-GQWHCTT[Cha]FPHH[dY]CLYG (disulfide 5-14; not fully specified (C-terminus)) [Compound ID 918]	0
{Gd^T″}-GQ[Bta]HCTTRFPHHYCLYG (disulfide 5-14) [Compound ID 868]	40
Cbz-GQWHCTTRFPHHYCLYGK (disulfide 5-14 (inferred); not fully specified (residue 18)) [Compound ID 925]	62
{Gd^T″}-K(Gd^T″)K(K(Gd^T)Gd^T)GQWHCTTYFPHHYCLYG (disulfide 7-16 (inferred); reading uncertain) [Compound ID 960]	34
{Gd^T″}-PPWHCTTLFPHH[dY]CLYG (disulfide 5-14 (inferred); not fully specified (C-terminus)) [Compound ID 912]	0

— patent US20080044360A1 (COLLAGEN MEDICAL, published 2008)
